This passage reports EC50 of cAMP production results from patent US20050042205A1.

The target of the assay is rat luteal LH/CG receptor (LH/CG-R) expressed from the cloned cDNA (expression vector pCLHR) in transiently transfected human kidney 293 cells (rat) (UniProt P16235).

In the case of “human choriogonadotropin, highly purified (CR-123; 12,780 IU/mg) (from UniProt P01215) (ligand)”, the EC50 of cAMP production lay in the range of 0.04 to 0.08 nM.
